Data on one molecule can be found in patent US20160287687A1 (IMMATICS BIOTECHNOLOGIES, published 2016).

The target of this assay is T1, HLA-A*02:01 (human).
T1 construct: MHC monomers first loaded with a UV-sensitive peptide (not identified) that is cleaved by UV light and exchanged for the test peptide; captured on streptavidin plates, detected with anti-β2m; also called peptide-receptive MHC molecules; MHC class I
The experiment in a line: UV-ligand exchange + anti-b2m ELISA; peptide exchange yield grade (+ >=10%, ++ >=20%, +++ >=50, ++++ >=75%). An excerpt: Candidate peptides for T cell based therapies according to the present invention were further tested for their MHC binding capacity (affinity). The individual peptide-MHC complexes were produced by UV-ligand exchange, where a UV-sensitive peptide is cleaved upon UV-irradiation, and exchanged with the peptide of interest as analyzed. Only peptide candidates that can effectively bind and stabilize the peptide-receptive MHC molecules prevent dissociation of the MHC complexes. To determine the yield of the exchange reaction, an ELISA was performed based on the detection of the light chain (β2m) of stabilized MHC complexes. The assay was performed as generally described in Rodenko et al. (Rodenko et al., 2006).
96 well MAXISorp plates (NUNC) were coated over night with 2 ug/ml streptavidin in PBS at room temperature, washed 4× and blocked for 1h at 37° C. in 2% BSA containing blocking buffer. Refolded HLA-A*02:01/MLA-001 monomers served as standards, covering the range of 15-500 ng/ml. Peptide-MHC monomers of the UV-exchange reaction were diluted 100 fold in blocking buffer. Samples were incubated for 1 h at 37° C., washed four times, incubated with 2 ug/ml HRP conjugated anti-β2m for 1h at 37° C., washed again and detected with TMB solution that is stopped with […]. Absorption was measured at 450 nm. […]

B1: SLTALRLLL (SEQ ID NO: 70) (peptide)
peptide: SLTALRLLL
notes: source gene KBTBD11
Turning to B1, the peptide exchange yield fell in the range of 20 to 50%.
